Test results as given in paper PMC4335501 (2015).

Target: HAdV-52 long fiber knob (human adenovirus type 52 (HAdV-52))
Assay: SPR

B1: Recombinant human CAR (CXADR Fc chimera; full length extracellular D1D2 domain) (Fc fusion)
chain: LSITTPEEMIEKAKGETAYLPCKFTLSPEDQGPLDIEWLISPADNQKVDQVIILYSGDKIYDDYYPDLKGRVHFTSNDLKSGDASINVTNLQLSDIGTYQCKVKKAPGVANKKIHLVVLVKPSGARCYVDGSEEIGSDFKIKCEPKEGSLPLQYEWQKLSDSQKMPTSWLAEMTSSVISVKNASSEYSGTYSCTVRNRVGSDQCLLRLNVVPPSNKAG
B1 showed a koff of 0.00221 s⁻¹.
